B1: recombinant AIM protein (rAIM) of mouse labeled with HA-tag (ligand)
chain: ESPTKVQLVGGAHRCEGRVEVEHNGQWGTVCDDGWDRRDVAVVCRELNCGAVIQTPRGASYQPPASEQRVLIQGVDCNGTEDTLAQCELNYYVFDCSHEEDAGAQCENPDSDLLFIPEDVRLVDGPGHCQGRVEVLHQSQWSTVCKAGWNLQVSKVVCRQLGCGRALLTYGSCNKNTQGKGPIWMGKMSCSGQEANLRSCLLSRLENNCTHGEDTWMECEDPFELKLVGGDTPCSGRLEVLHKGSWGSVCDDNWGEKEDQVVCKQLGCGKSLHPSPKTRKIYGPGAGRIWLDDVNCSGKEQSLEFCRHRLWGYHDCTHKEDVEVICTDFDV
notes: also called rAIM-HA; AIM-HA; not shown: HA-tag

Tests used:
Assay in all cases: co-immunoprecipitation of Flag-tagged FAS domains with AIM-HA in HEK293T cells
[1] = biological target: B1
[2] = biological target: T1, keto acyl synthase (KS) domain of FAS labeled with Flag at the N-terminal (UniProt P19096 1-406, limits assumed)
T1 construct: domain: keto acyl synthase (KS); Subcloned into pFLAG-CMV2 from the full-length FAS cDNA
T1 sequence (looked up): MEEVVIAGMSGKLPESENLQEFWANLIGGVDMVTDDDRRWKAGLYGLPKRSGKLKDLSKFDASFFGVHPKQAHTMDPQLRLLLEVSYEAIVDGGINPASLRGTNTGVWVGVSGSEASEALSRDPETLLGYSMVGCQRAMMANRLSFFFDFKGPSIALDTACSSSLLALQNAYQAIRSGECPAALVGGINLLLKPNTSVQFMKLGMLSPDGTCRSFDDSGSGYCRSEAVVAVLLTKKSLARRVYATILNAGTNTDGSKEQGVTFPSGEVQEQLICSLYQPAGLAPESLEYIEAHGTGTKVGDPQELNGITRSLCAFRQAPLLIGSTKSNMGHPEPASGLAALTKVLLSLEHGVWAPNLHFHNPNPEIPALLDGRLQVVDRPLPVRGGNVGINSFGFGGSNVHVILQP

[3] = biological target: T2, malonyl/acetyl transferase (MAT) domain of FAS labeled with Flag at the N-terminal (UniProt P19096 429-817, limits assumed)
T2 construct: domain: malonyl/acetyl transferase (MAT); Subcloned into pFLAG-CMV2 from the full-length FAS cDNA
T2 sequence (looked up): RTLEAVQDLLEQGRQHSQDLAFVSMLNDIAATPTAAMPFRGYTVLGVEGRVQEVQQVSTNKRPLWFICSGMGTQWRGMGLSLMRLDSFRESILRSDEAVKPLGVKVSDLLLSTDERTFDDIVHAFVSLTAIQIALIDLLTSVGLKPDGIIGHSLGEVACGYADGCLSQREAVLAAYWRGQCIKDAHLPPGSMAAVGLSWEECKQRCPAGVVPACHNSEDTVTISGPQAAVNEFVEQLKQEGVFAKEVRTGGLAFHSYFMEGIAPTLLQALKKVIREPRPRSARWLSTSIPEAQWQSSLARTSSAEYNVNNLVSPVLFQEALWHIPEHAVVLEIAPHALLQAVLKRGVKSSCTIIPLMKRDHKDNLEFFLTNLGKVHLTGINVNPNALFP

Binder | binding result [1] | binding result [2] | binding result [3]
acylcarrier protein (ACP) domain of FAS labeled with Flag at the N-terminal (enzyme, UniProt P19096 2112-2192, looked up, not shown: small tags and cut ends, domain: acylcarrier protein (ACP); Subcloned into pFLAG-CMV2 from the full-length FAS cDNA) HGDGDTQRDLVKAVAHILGIRDLAGINLDSTLADLGLDSLMGVEVRQILEREHDLVLPMREVRQLTLRKLQEMSSKTDSAT | no binding |  | 
B1 |  | no binding | no binding
keto reductase (KR) domain of FAS labeled with Flag at the N-terminal (enzyme, UniProt P19096 1857-2111, looked up, not shown: small tags and cut ends, domain: keto reductase (KR); Subcloned into pFLAG-CMV2 from the full-length FAS cDNA) VLPGAQPTLISAISKTFCPAHKSYIITGGLGGFGLELARWLVLRGAQRLVLTSRSGIRTGYQAKHIREWRRQGIQVLVSTSNVSSLEGARALIAEATKLGPVGGVFNLAMVLRDAMLENQTPELFQDVNKPKYNGTLNLDRATREACPELDYFVAFSSVSCGRGNAGQTNYGFANSTMERICEQRRHDGLPGLAVQWGAIGDVGIVLEAMGTNDTVIGGTLPQRISSCMEVLDLFLNQPHAVLSSFVLAEKKAVA | no binding |  | 

From patent US20130115220A1 (DAINIPPON SUMITOMO PHARMA, published 2013)
